A short description of this data set: yeast display, Sf9 membrane polyspecificity reagent, FACS + sequencing; frameworks hold sequencing errors. The method, boiled down:
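In a synthetic yeast display library (Saccharomyces cerevisiae BJ5465), nanobody expression was induced with galactose for 36–48 hours. FACS gates were set low and high (top ~1%) using anti-HA fluorescence for expression and streptavidin fluorescence for binding of the Sf9 membrane reagent. Each polyreactivity label is drawn from the gate of origin.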
In the case of “QVQLVESGGGLVQAGGSLRLSCAASGSTLGRYAMGWYRQAPGKERELVAAISSSGTTYYADSVKGRITISRDNAKNTVYLQMNSLKPEDTAVYYCNARGFRVARHAAWYQYDYWGQGTQVTVSS”, the “polyreactivity (PSR sort gate)” value is “high polyreactivity”.

Consider “QVQLVESGGGLVQAGGSLRLSCAASGSTLGRYTMGWSRQAPGKERELVAAIRASGTSTYYADSVKGRFTISRDNAKNTVYLQMNSLKPEDTAVYYCNALQFGTVRLDSWGLGTQVTVSS”, for which the “polyreactivity (PSR sort gate)” value is “low polyreactivity”.

Consider “QVQLVESGGGLVQAGGSLRLSCAASGSTLGRYTMGWYRQAPGKERELVATITASGGGTYYADSVKGRFTISRDTAKNTVYLQMNSLKPEDTAVYYCNAVLWYHFGYDYWGQGTQVTVSS”, for which the “polyreactivity (PSR sort gate)” value was “low polyreactivity”.

Consider “QVQLVESGGGLVQAGGSLRLSCAASGSTLGWYVMGWYRQAPGKERELVAAISKSGGRTYYADSVKGRFTISRDNAKNTVYLQMNSLKPEDTAVYYCAAYPPSDFYYEHDYWGQGTQVSVSS”, for which the “polyreactivity (PSR sort gate)” value is on record as “high polyreactivity”.

Turning to “QVQLVESGGGLVQAGGSLRLSCAASGSTLGYNVMGWYRQAPGKERELVAAISGDGSTNYADSVNGRFTMSRDNAKNTVYLQMNSLKPEDTAVYYCNAPFWGYRTSFSYPVVLRFDYWGQGTQVTVSS”, the “polyreactivity (PSR sort gate)” value is “low polyreactivity”.

For “QVQLVESGGGLVQAGGSLRLSCAASGSTLGYYSMGWYRQAPGKERELVAAIRYSDGNTYYADSVKGRFTISRDNAKNTVYLQMNSLKPEDTAVYYCAADGGYYGRDYWGQVTQVTVSS”, the “polyreactivity (PSR sort gate)” value was “high polyreactivity”.

For the sequence “QVQLVESGGGLVQAGGSLRLSCAASGSTLKLNAMGWYRQAPGKERELVAAITRSGGSTYYADSVKGRFTISRDNAKNTVYLQMNSLKPEDTAVYYCAADVLWDEFGYWGQGTQVTVSS”, the “polyreactivity (PSR sort gate)” value is recorded as “low polyreactivity”.

Take “QVQLVESGGGLVQAGGSLRLSCAASGSTLLTYTMGWYRQAPGKERELVASITTSGGSTYADSVKGRFTISRDNAKNTVYLQLNSLKPEDTAVYYCAALYLWYSYHVVYQYDYWGQGTQVTVSS”: the “polyreactivity (PSR sort gate)” value is “low polyreactivity”.

Turning to “QVQLVESGGGLVQAGGSLRLSCAASGSTLLTYTMGWYRQAPGKESELVASITTSGGSTYYADSVKGRFTISRDNAKNTVYLQMNSLKPEDTAVYYWGQGTQVTVSS”, the “polyreactivity (PSR sort gate)” value was “low polyreactivity”.

As to “QVQLVESGGGLVQAGGSLRLSCAASGSTLNLYAMGWFRQAPGKEMELVAAIRSHGVSTYYADSVKGRFTISRDNAKNTVYLQMNRLKPEYTAFYYCAGVYIPGGRYTYFPYKRYDYWGQGTQVTVSS”, the “polyreactivity (PSR sort gate)” value is “high polyreactivity”.

“QVQLVESGGGLVQAGGSLRLSCAASGSTLNSYVMGWYRQAPGKERELVATIRSGSSTNYADSVNGRFTISRDNAKNTVYLQMNSLKPEDTAVYYCAADAYSLCYDSWGQGTQVTVSS”: the “polyreactivity (PSR sort gate)” value is “low polyreactivity”.

Consider “QVQLVESGGGLVQAGGSLRLSCAASGSTLPPYVMGRYRQAPGKERELVAAISSSSGSTYYADSVKGRFTISRDNAKNTVYLQRNSLKPEDTAVYYCAAVTGWAREEEYWGQGTQVTVSS”, for which the “polyreactivity (PSR sort gate)” value was “low polyreactivity”.

Regarding “QVQLVESGGGLVQAGGSLRLSCAASGSTLPYYAMGWYRQAPGKERELVAAITSSGGDTYYADSVKGRFTISRDNAKNTVYLQMNSLKPEDTAVYYCAKSYSARSTVRKLFYFAYDYWGQGTQVTVSS”, the “polyreactivity (PSR sort gate)” value is given as “low polyreactivity”.

On to “QVQLVESGGGLVQAGGSLRLSCAASGSTLQYYDMGWYRQAPGKERELVAAITWSTGTTYYADSVKGRFTISRDNAKNTVYLQMNSLKPEDTAVYYCAVDSYYRATYTNRYDYWGQGTQVTVSS”, for which the “polyreactivity (PSR sort gate)” value is given as “low polyreactivity”.

As to “QVQLVESGGGLVQAGGSLRLSCAASGSTLRGYALGWYRQAPGKERELVAAISKNGGSTYYADSVKGRFTISRDNAKNTVYLQMNSLNPEDTAVYYCAAYKAVPHYYYWGQGTQVTVSS”, the “polyreactivity (PSR sort gate)” value is on record as “high polyreactivity”.

In the case of “QVQLVESGGGLVQAGGSLRLSCAASGSTLRPYGMGWYRQAPGKERELVATIRSSSGRTYYADSVKGRFTISRDNAKTTVYLQMTSLKPEDTAVYYCARRYITNIKYDYWGQGTQVTVSS”, the “polyreactivity (PSR sort gate)” value is given as “high polyreactivity”.

Regarding “QVQLVESGGGLVQAGGSLRLSCAASGSTLRRNAMGWYRQAPGTERELVAAITGSRGSTFYADSVKGRFTISRDNAKNTVYLQMNSLKPEDTAVYYCAVYKWSTRVSQYRYDYWGQGTQVTVSS”, the “polyreactivity (PSR sort gate)” value is listed as “high polyreactivity”.

For the sequence “QVQLVESGGGLVQAGGSLRLSCAASGSTLRRYAMGWDRQAPGKERELVAAISGSGDSTYYADSVKGRFTISRDNAKNTVYLQMNSLKPEDTAVYYCNAVYAFNGYDYWGQGTQVTVSS”, the “polyreactivity (PSR sort gate)” value was “low polyreactivity”.

In the case of “QVQLVESGGGLVQAGGSLRLSCAASGSTLRYYGMGWYRQAPGKEREFVATLSWGGGSTYYADSVKGRFTISRDNAKNTVYLQINSLKPEDTAVYYCAASWNGGLFQTKYGYWGQGTQVTVSS”, the “polyreactivity (PSR sort gate)” value is on record as “high polyreactivity”.

Take “QVQLVESGGGLVQAGGSLRLSCAASGSTLSANAMGWYRQAPGKERELVAAISWNGGSTYYADSVKGRFTISRDNAKNTVYLQMNSLKPEDTAVYYCAAEYIVTYEYWYFGYDYWGQGTQVTVSS”: the “polyreactivity (PSR sort gate)” value was “low polyreactivity”.

For the sequence “QVQLVESGGGLVQAGGSLRLSCAASGSTLSFNAMGWYRQAPGKERELVAAITSSGGSTYYADSVKGRFTISRDNAKNTVYLQMKSLKPEDTAVYYCAADRYTVRMDYWGQGTQVTVSS”, the “polyreactivity (PSR sort gate)” value is given as “high polyreactivity”.

Turning to “QVQLVESGGGLVQAGGSLRLSCAASGSTLSNNAMGWYRQAPGKERELVAAINDSAGSTYYADSVKGRFTISRDNAKNTVYLQMNSLKPEDTAVYYCAAKNYGRSFYYGYDYWEQGTQVTVSS”, the “polyreactivity (PSR sort gate)” value was “low polyreactivity”.

As to “QVQLVESGGGLVQAGGSLRLSCAASGSTLSVYAKGSYIQAPGKEREFVASISSSVGRTFYADSVKGRFTISRDNANNTVYLQMNSLNQEDTAVYYCAARRRTFYASSSAINGYDYWRQGTQVTVSS”, the “polyreactivity (PSR sort gate)” value was “high polyreactivity”.

As for “QVQLVESGGGLVQAGGSLRLSCAASGSTLTSNAIGWYRQAPGKERELVAAIRSGGSTNYADSVKGRFTISRDNAKNTVYLQMYSLNPEDTAVYYCNAEEKVTYSASYYWVYDAMDHWGQGTQVTVSS”, the “polyreactivity (PSR sort gate)” value is listed as “low polyreactivity”.

As for “QVQLVESGGGLVQAGGSLRLSCAASGSTLVFYAMGWYRQAPGKERELVAAITRSGGSTYYADSVKGRFTISRDNEKNTVYLQMNSLKPEDTAFYYCAADERYIYERDSWGQGTQVTVSS”, the “polyreactivity (PSR sort gate)” value is “low polyreactivity”.

Take “QVQLVESGGGLVQAGGSLRLSCAASGSTLVLNALGWYRQAPGKERELVAAITISGDTTYYADSVKGRFTISRDNAKNTVYLQMNSLKPEDTAVYYCAAVVSTVDGMEYWGQGTQVTVSS”: the “polyreactivity (PSR sort gate)” value was “low polyreactivity”.

Take “QVQLVESGGGLVQAGGSLRLSCAASGSTLVYNDMGWYRQAPGKEREFVAAIRSNDGSTYYADSVKGRFTISRDNAKNTVYLQMNSLKPEDTAVYYCAARYPARGTLYYWGQGTQVTVSS”: the “polyreactivity (PSR sort gate)” value is reported as “low polyreactivity”.

For “QVQLVESGGGLVQAGGSLRLSCAASGSTLWGYAMGWYRPAPGKERELVAAITSSGGITYYADSVKGRFTISRDNAKNTVYLQMNSLKPEDTAVYYCAVDYYVVGWTYLYYYRGQGTQVTVSS”, the “polyreactivity (PSR sort gate)” value is recorded as “low polyreactivity”.

As for “QVQLVESGGGLVQAGGSLRLSCAASGSTLWGYVMGWYRQAPGKERELVAVISKSGGSTYYADSVKGRFTISRDNAKNTVYLQMNSLKPEDTAVYYCATRGPYRSDWGQGTQVTVSS”, the “polyreactivity (PSR sort gate)” value is reported as “high polyreactivity”.

In the case of “QVQLVESGGGLVQAGGSLRLSCAASGSTLWRSAMGWYRQAPGKERELVAGISRGGGSTYYADSVKGRFTISRDNAKNTVYLQMHSLKPEDTAVYYCATPVYQVRGAFDYWGQGTQVTVSS”, the “polyreactivity (PSR sort gate)” value is “low polyreactivity”.

In the case of “QVQLVESGGGLVQAGGSLRLSCAASGSTLWYNAMGWYRQAPGKERELVASITSDGGSSTYADSVKGRFTISRDNAKNTVYLQMNSQKPEDTAVYYCAADWPIVQYDYWGQGTQVTVSS”, the “polyreactivity (PSR sort gate)” value is on record as “low polyreactivity”.

“QVQLVESGGGLVQAGGSLRLSCAASGSTLYFYAMGWYRQAPGKERELVADITRSGGSTYYADSVKGRFTISRDNAKNTVYLQMNSLKPEDTAVYYCNADDWSTYWYGYPGYDYWGQGTQVTVSS”: the “polyreactivity (PSR sort gate)” value is given as “high polyreactivity”.

Regarding “QVQLVESGGGLVQAGGSLRLSCAASGSTLYGYAMGWYRQAPGNERELVAAISVSGGRTYYADSVKGRFTISRDNAKNTVYLQMNSLKPEDTAVYYCAAYGTTRMDYWGQGTQVTVSS”, the “polyreactivity (PSR sort gate)” value was “high polyreactivity”.

Take “QVQLVESGGGLVQAGGSLRLSCAASGSTLYPNAMGWYRHAPGKERELVAAISSGSSTYADSVKGRFTISRDNAKNTVYLQMNSLKPEDTAVYYCNADSRIHYDYWGQGTQLTVSS”: the “polyreactivity (PSR sort gate)” value is “low polyreactivity”.

With “QVQLVESGGGLVQAGGSLRLSCAASGSTLYPNAMGWYRQAPGKERELVAAISSGSSTYADSVKGRFTISRDNAKNTVYLQMNRLKPEDTAVYYCNADSRIHYDYWGQGTQVTVSS”, the “polyreactivity (PSR sort gate)” value is given as “low polyreactivity”.

Take “QVQLVESGGGLVQAGGSLRLSCAASGSTLYQYTMGWYRQAPGKERELVAGISRRGGSTYYADSVKGRFTISRDNAKNTVYLQMNSLKPEDTAVYYCAKRPPYIAWYGYNGDYWGQGTQVTVSS”: the “polyreactivity (PSR sort gate)” value was “high polyreactivity”.

As to “QVQLVESGGGLVQAGGSLRLSCAASGSTLYRYAMGWYRQAAGKERELVATITRSGGSTYYADSVKGRFTISRDNAKNTVYLQMNSLKPEDTAVYSCAAYRKVGGFSRGDYWGQGTQVTVSS”, the “polyreactivity (PSR sort gate)” value is given as “high polyreactivity”.

On to “QVQLVESGGGLVQAGGSLRLSCAASGSTLYSYAMGWYRQAPGKERELVAAISIGDSTNYADSVKGRFTISRDNAKNTVYLQMNSLKPVDTAVYYCAADWDESYSYRRYRHYDYWGQGTQVSVSS”, for which the “polyreactivity (PSR sort gate)” value is reported as “low polyreactivity”.

As to “QVQLVESGGGLVQAGGSLRLSCAASGSTLYTYAMGWYRPAPGKERELVAAIRLSGGRTYYADSVKGRFTISRDNAKNTVYLQMNSLKPEDTAVYYCAVDWSYSRYDYWGQGTQVTVSS”, the “polyreactivity (PSR sort gate)” value is “high polyreactivity”.

For “QVQLVESGGGLVQAGGSLRLSCAASGSTLYTYAMRWYRQAPGKERELVAAIRLSGGRTYYADSVKGRFTISRDNAKNTVYLQMYSLKPEDTAVYDFAVDWSYSRYDYWGQGTQVTVSS”, the “polyreactivity (PSR sort gate)” value was “high polyreactivity”.

In the case of “QVQLVESGGGLVQAGGSLRLSCAASGSTLYVNAMGLYRQAPGKERELVAAISWRGDRTYYADSVKGRFTISRDNAKNNVYLQMNSLKPEDTAVYYCAKDYWWKGTTLYYNLDYWGQGTQVTVSS”, the “polyreactivity (PSR sort gate)” value is recorded as “high polyreactivity”.

Values taken from the nanobody polyreactivity screen of Harvey et al. (2022).
